Test results as given in patent US20180355061A1 (Janssen / Centocor, published 2018).

Assays:
[1] = biological target: T1, human PD-1 (soluble analyte in SPR) (human, UniProt Q15116 25-170, limits assumed); test: SPR (ProteOn XPR36), mAb captured on anti-human IgG Fc, PD-1 as analyte, 25 C
T1 construct: also called CD279; PDCD1
Procedure: (§1) Affinity measurements were performed using a ProteOn XPR36 system (BioRad). […] Approximately 5000 RU (response units) of mAbs were immobilized. The kinetic experiments were performed at 25° C. in running buffer (DPBS+0.01% P20+100 μg/mL BSA). To perform kinetic experiments, 200 RU of mAbs were captured followed by injections of analytes (human and cyno PD-1) at concentrations ranging from 1.563 nM to 400 nM (in a […] serial dilution). The association phase was monitored for 3 minutes at 50 μL/min, then followed by 10 or 15 minutes of buffer flow (dissociation phase). The chip surface was regenerated with two 18 second pulses of 100 mM H₃PO₄ (Sigma, Cat #7961) at 100 μL/min.
(§2) The collected data were processed using ProteOn Manager software. First, the data was corrected for background using inter-spots. Then, double reference subtraction of the data was performed by using the buffer injection for analyte injections. The kinetic analysis of the data was performed using a Langmuir 1:1 binding model. The result for each mAb was reported in the format of ka (On-rate), kd (Off-rate) and KD (equilibrium dissociation constant).
Affinity of the parental and humanized antibodies to PD-1 was measured using SPR as described in Example 1.

[2] = biological target: T2, human PD-1 expressed on cells (human, UniProt Q15116 25-288); test: cell-based or functional assay
T2 sequence (Q15116 25-288 limits assumed): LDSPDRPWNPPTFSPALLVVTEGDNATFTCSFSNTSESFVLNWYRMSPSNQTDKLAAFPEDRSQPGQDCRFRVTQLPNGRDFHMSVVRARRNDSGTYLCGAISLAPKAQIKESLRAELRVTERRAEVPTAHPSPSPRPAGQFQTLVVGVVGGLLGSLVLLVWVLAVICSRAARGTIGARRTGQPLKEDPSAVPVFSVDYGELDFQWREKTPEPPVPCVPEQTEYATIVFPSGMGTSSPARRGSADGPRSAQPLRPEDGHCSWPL

[3] = biological target: T2, human PD-1 expressed on cells; test: cell-based or functional assay; remark: listed apart in the source
[4] = biological target: T3, cyno PD-1 (soluble analyte in SPR) (cyno); test: SPR (ProteOn XPR36), mAb captured on anti-human IgG Fc, cyno PD-1 as analyte, 25 C
T3 construct: also called cynomolgus PD-1
Procedure: as §1, §2
(§3) Affinity of the antibodies to human and cyno PD-1 was measured using SPR as described in Example 1.

[5] = biological target: T1, human PD-1 (soluble analyte in SPR); test: SPR (ProteOn XPR36), mAb captured on anti-human IgG Fc, human PD-1 as analyte, 25 C
Procedure: as §1, §2, §3

[6] = biological target: T2, human PD-1 expressed on cells; test: cell-based or functional assay; remark: listed apart in the source
[7] = biological target: T2, human PD-1 expressed on cells; test: cell-based or functional assay; remark: listed apart in the source

T1 sequence (Q15116 25-170 limits assumed): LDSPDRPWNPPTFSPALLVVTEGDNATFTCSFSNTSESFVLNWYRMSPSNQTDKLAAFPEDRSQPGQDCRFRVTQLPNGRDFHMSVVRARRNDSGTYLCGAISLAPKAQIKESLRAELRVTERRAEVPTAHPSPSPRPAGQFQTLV

| Binder | Kd [1] | koff [1] | kon [1] | % inhibition of activated T cells, CMV-PBMC assay, donor D1 [2] | Mean % inhibition across two donors, CMV-PBMC assay [3] | Kd [4] | koff [4] | kon [4] | Kd [5] | koff [5] | kon [5] | mean % inhibition of T cell proliferation, CMV-PBMC assay (FIG. 5B) [6] | % inhibition at 10 ug/ml mAb, CMV-PBMC assay, donor D4 [7] | % inhibition at 10 ug/ml mAb, CMV-PBMC assay, donor D5 [7] | % inhibition at 10 ug/ml mAb, CMV-PBMC assay, donor D3 [7] |
| --- | --- | --- | --- | --- | --- | --- | --- | --- | --- | --- | --- | --- | --- | --- | --- |
| PD1B878 (antibody, human IgG1, kappa, V domains shown, C84S variant of PD1B743, IgG1; also called VH PD1H405; VL PD1L469) VH: QVQLVQSGSELKKPGASVKVSCKASGYTFTDYSMHWVRQAPGQGLEWMGWINIETGEPTYAQGFTGRFVFSLDTSVSTAYLQISSLKAEDTAVYFCARDYYGTYFYAMDYWGQGTLVTVSS VL: EIVLTQSPATLSLSPGERATLSCTASSSVSSSYLHWYQQKPGLAPRLLIYSTSNLASGIPDRFSGSGSGTDYTLTISRLEPEDFAVYYCHQYHRSPLTFGQGTKLEIKR | 58.9 nM | 0.00351 s⁻¹ | 59800 M⁻¹ s⁻¹ | 78.3% |  |  |  |  |  |  |  |  |  |  |  |
| PD1B1094 (antibody, human IgG1, kappa, V domains shown, also called VH PD1H586; VL PD1L652) VH: QVQLVQSGSELKKPGASVKVSCKASGYTFTDYSMHWVRQAPGQGLEWMGWINIETGHPTYAQGFTGRFVFSLDTSVSTAYLQISSLKAEDTAVYFCARDYYGTYFYAMDYWGQGTLVTVSS VL: EIVLTQSPATLSLSPGERATLSCTASSSVPSSYLHWYQQKPGLAPRLLIYSTSNLASGIPDRFSGSGSGTDYTLTISRLEPEDFAVYYCHQYHRSPLTFGQGTKLEIKR |  |  |  |  | 77.9% | 12 nM | 0.00162 s⁻¹ | 135000 M⁻¹ s⁻¹ | 0.871 nM | 9.16e-05 s⁻¹ | 105000 M⁻¹ s⁻¹ |  |  |  |  |
| PD1B756 (antibody, human IgG1, kappa, V domains shown, Humanized PD1B512, IgG1; also called VH PD1H389; VL PD1L472) VH: QITLKESGPTLVKPTQTLTLTCTFSGFSLSTSGMGVSWIRQPPGKALEWLAHIYWDDDKRYSPSLKSRLTITKDTSKNQVVLTMTNMDPVDTGTYYCVRKGYYDYGYVMDYWGQGTLVTVSS VL: DIVMTQSPLSLPVTPGEPASISCRSSKSLLHSNGITYLNWYLQKPGQSPQLLIYQMSNLASGVPDRFSGSGSGTDFTLKISRVEAEDVGVYYCAQNLELPLTFGGGTKVEIKR | 18.1 nM | 0.00214 s⁻¹ | 118000 M⁻¹ s⁻¹ |  |  |  |  |  |  |  |  | 36.7% | 0.3% | 69.3% | 27.4% |
| PD1B750 (antibody, human IgG1, kappa, V domains shown, Humanized PD1B506, IgG1; also called VH PD1H388; VL PD1L470) VH: QVQLVQSGAEVKKPGASVKVSCKASGYTFTTYWMHWVRQAPGQGLEWMGEINPNNGGINYAQKFQGRVTLTVDKSISTAYMELSRLRSDDTAVYYCTIDYYDYGGYWGQGTLVTVSS VL: DIQMTQSPSSLSASVGDRVTITCKASQNVGTNVAWYQQKPEKAPKSLIYSASYRYSGVPSRFSGSGSGTDFTLTISSLQPEDFATYYCQQYNIYPYTFGQGTKLEIKR | 23.2 nM | 0.00832 s⁻¹ | 359000 M⁻¹ s⁻¹ |  |  |  |  |  |  |  |  | 65.9% | 24.2% | 75% |  |

More lines, now with the values ahead:

| Kd [1] | koff [1] | kon [1] | % inhibition of activated T cells, CMV-PBMC assay, donor D1 [2] | Mean % inhibition across two donors, CMV-PBMC assay [3] | Kd [4] | koff [4] | kon [4] | Kd [5] | koff [5] | kon [5] | mean % inhibition of T cell proliferation, CMV-PBMC assay (FIG. 5B) [6] | % inhibition at 10 ug/ml mAb, CMV-PBMC assay, donor D4 [7] | % inhibition at 10 ug/ml mAb, CMV-PBMC assay, donor D5 [7] | % inhibition at 10 ug/ml mAb, CMV-PBMC assay, donor D3 [7] | Binder |
| --- | --- | --- | --- | --- | --- | --- | --- | --- | --- | --- | --- | --- | --- | --- | --- |
| 32.8 nM | 0.003 s⁻¹ | 91500 M⁻¹ s⁻¹ |  |  |  |  |  |  |  |  | 58% | 30.5% | 64% |  | PD1B743 (antibody, human IgG1, kappa, V domains shown, Humanized PD1B505, IgG1; also called VH PD1H384; VL PD1L469) VH: QVQLVQSGSELKKPGASVKVSCKASGYTFTDYSMHWVRQAPGQGLEWMGWINIETGEPTYAQGFTGRFVFSLDTSVSTAYLQICSLKAEDTAVYFCARDYYGTYFYAMDYWGQGTLVTVSS VL: EIVLTQSPATLSLSPGERATLSCTASSSVSSSYLHWYQQKPGLAPRLLIYSTSNLASGIPDRFSGSGSGTDYTLTISRLEPEDFAVYYCHQYHRSPLTFGQGTKLEIKR |
|  |  |  |  | 74.8% | 1.43 nM | 0.000185 s⁻¹ | 130000 M⁻¹ s⁻¹ | 0.223 nM | 2.37e-05 s⁻¹ | 106000 M⁻¹ s⁻¹ |  |  |  |  | PD1B1090 (antibody, human IgG1, kappa, V domains shown, also called VH PD1H585; VL PD1L651) VH: QVQLVQSGSELKKPGASVKVSCKASGYTFTDYSMHWVRQAPGQGLEWMGWINIETGYPTYAQGFTGRFVFSLDTSVSTAYLQISSLKAEDTAVYFCARDYYGTYFYAMDYWGQGTLVTVSS VL: EIVLTQSPATLSLSPGERATLSCTASSSFSSSYLHWYQQKPGLAPRLLIYSTSNLASGIPDRFSGSGSGTDYTLTISRLEPEDFAVYYCHQYHRSPLTFGQGTKLEIKR |
|  |  |  |  | 72.7% | 31.8 nM | 0.00544 s⁻¹ | 171000 M⁻¹ s⁻¹ | 3.19 nM | 0.000394 s⁻¹ | 124000 M⁻¹ s⁻¹ |  |  |  |  | PD1B1086 (antibody, human IgG1, kappa, V domains shown, also called VH PD1H586; VL PD1L469) VH: QVQLVQSGSELKKPGASVKVSCKASGYTFTDYSMHWVRQAPGQGLEWMGWINIETGHPTYAQGFTGRFVFSLDTSVSTAYLQISSLKAEDTAVYFCARDYYGTYFYAMDYWGQGTLVTVSS VL: EIVLTQSPATLSLSPGERATLSCTASSSVSSSYLHWYQQKPGLAPRLLIYSTSNLASGIPDRFSGSGSGTDYTLTISRLEPEDFAVYYCHQYHRSPLTFGQGTKLEIKR |
